# From US20190211400A1
# Target: death receptor (DR) 3 on mouse mucosal CD4+ T cells (mouse)
# Assay: cell-based or functional assay
substance,measurement,value
TL1A added to mouse MLN and LP mononuclear cell cultures (from UniProt Q5UBV8 76-252) (ligand),"numbers of IFN-gamma producing CD4+ cells (intracellular staining of LPMC, without vs. with TL1A)",1
same,"numbers of IL-17-producing CD4+ cells (intracellular staining of LPMC, without vs. with TL1A)",0.89
